Source: publication PMC5459593 (2017)

Tests used:
Notch1(8-12) EGF8-12 = target: T1, Notch1(8-12) EGF8-12 (Rattus norvegicus, UniProt Q07008); assay: SPR
T1 chain: LLCLT

Notch1(11-12) EGF11-12 = target: T2, Notch1(11-12) EGF11-12 (Rattus norvegicus, UniProt Q07008); assay: SPR
T2 chain: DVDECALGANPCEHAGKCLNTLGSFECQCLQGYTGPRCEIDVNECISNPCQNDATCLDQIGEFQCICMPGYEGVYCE

Kd (Notch1(8-12) EGF8-12): 9.7 µM | Kd (Notch1(11-12) EGF11-12): 12.8 µM
B1: DLL4(N-3) N-EGF3 (protein)
chain: SGIFQLRLQEFANERGMLANGRPCEPGCRTFFRICLKHYQATFSEGPCTFGNVSTPVLGTNSFVIRDKNSGSGRNPLQLPFNFTWPGTFSLNIQAWHTPGDDLRPETSPGNSLISQIIIQGSLAVGKNWKSDEQNNTLTRLRYSYRVVCSDNYYGDSCSRLCKKRDDHFGHYECQPDGSLSCLPGWTGKYCDQPICLSGCHEQNGYCSKPDECNCRPGWQGPLCNECIPHNGCRHGTCTIPWQCACDEGWGGLFCDQDLNYCTHHSPCKNGSTCSNSGPRGYTCTCLPGYTGEHCE
